Laboratory results from US20100016697.

T1: MT1-MMP specific fluorogenic substrate MCA-Pro-Leu-Ala-Cys(p-OmeBz)-Trp-Ala-Arg(Dpa)-NH2
T1 chain: PLACWAR

B1: a disintegrin and metalloproteinase (ADAM)-10 (R&D Systems) (protein)
chain: TTSAEKNTCQLYIQTDHLFFKYYGTREAVIAQISSHVKAIDTIYQTTDFSGIRNISFMVKRIRINTTADEKDPTNPFRFPNIGVEKFLELNSEQNHDDYCLAYVFTDRDFDDGVLGLAWVGAPSGSSGGICEKSKLYSDGKKKSLNTGIITVQNYGSHVPPKVSHITFAHEVGHNFGSPHDSGTECTPGESKNLGQKENGNYIMYARATSGDKLNNNKFSLCSIRNISQVLEKKRNNCFVESGQPICGNGMVEQGEECDCGYSDQCKDECCFDANQPEGRKCKLKPGKQCSPSQGPCCTAQCAFKSKSEKCRDDSDCAREGICNGFTALCPASDPKPNFTDCNRHTQVCINGQCAGSICEKYGLEECTCASSDGKDDKELCHVCCMKKMDPSTCASTGSVQWSRHFSGRTITLQPGSPCNDFRGYCDVFMRCRLVDADGPLARLKKAIFSPELYENIAE
B2: MMP-2 (part of MMP-2/9, Chemicon) (protein)
chain: YNFFPRKPKWDKNQITYRIIGYTPDLDPETVDDAFARAFQVWSDVTPLRFSRIHDGEADIMINFGRWEHGDGYPFDGKDGLLAHAFAPGTGVGGDSHFDDDELWTLGEGQVVRVKYGNADGEYCKFPFLFNGKEYNSCTDTGRSDGFLWCSTTYNFEKDGKYGFCPHEALFTMGGNAEGQPCKFPFRFQGTSYDSCTTEGRTDGYRWCGTTEDYDRDKKYGFCPETAMSTVGGNSEGAPCVFPFTFLGNKYESCTSAGRSDGKMWCATTANYDDDRKWGFCPDQGYSLFLVAAHEFGHAMGLEHSQDPGALMAPIYTYTKNFRLSQDDIKGIQELYGASPDIDLGTGPTPTLGPVTPEICKQDIVFDGIAQIRGEIFFFKDRFIWRTVTPRDKPMGPLLVATFWPELPEKIDAVYEAPQEEKAVFFAGNEYWIYSASTLERGYPKPLTSLGLPPDVQRVDAAFNWSKNKKTYIFAGDKFWRYNEVKKKMDPGFPKLIADAWNAIPDNLDAVVDLQGGGHSYFFKGAYYLKLENQSLKSVKFGSIKSDWLGC

Biological target: T1, MT1-MMP specific fluorogenic substrate …

Protein	fluorescence emission (cleavage of the quenched fluorogenic substrate)
B1	Incubation with MMP-2/9, MMP-8, or ADAM-10 and 17 alone failed to cause fluorescence emission from the MT1-MMP substrate.
B2	Incubation with MMP-2/9, MMP-8, or ADAM-10 and 17 alone failed to cause fluorescence emission from the MT1-MMP substrate.
